The source of these data is paper PMC10876425.

The target in assay [1] is Light-harvesting 2 (LH2) complex from Rhodobacter sphaeroides (Rhodobacter sphaeroides). The assay is described as follows: FRET or BRET; fluorescence lifetime microscopy (TCSPC) of LH2 emission at 857 ± 3 nm after excitation at 485 nm; intact DOPC proteoliposomes (LH2 only, 2:1, 1:1, 0.5:1 LH2:RC-LH1); E = 1 - τDA/τD; values are averages for the whole system.
Assay [2] addresses Reaction-centre light-harvesting 1 (RC-LH1) complex from Rhodobacter sphaeroides, carotenoid-less (from the ΔcrtB strain) (Rhodobacter sphaeroides) (UniProt P0C0Y8). The description is as above.

The substance “Light-harvesting 2 (LH2) complex from Rhodobacter sphaeroides” came in with an LH2 fluorescence lifetime in LH2-only proteoliposomes in assay [1] of 0.72 ns. In assay [2], this substance displayed an LH2 fluorescence lifetime in proteoliposomes (0.5:1 LH2:RC-LH1) of 0.37 ns, an LH2 fluorescence lifetime in proteoliposomes (1:1 LH2:RC-LH1) of 0.35 ns, an LH2 fluorescence lifetime in proteoliposomes (2:1 LH2:RC-LH1) of 0.43 ns and an LH2→RC-LH1 energy transfer efficiency (0.5:1 LH2:RC-LH1) of 49%. In assay [2], this substance gave an LH2→RC-LH1 energy transfer efficiency (1:1 LH2:RC-LH1) of 51% and an LH2→RC-LH1 energy transfer efficiency (2:1 LH2:RC-LH1) of 40%.
